# T1: recombinant human PVRIG protein (PVRIG extracellular full-length protein) (human, UniProt Q6DKI7 41-171)
# T1 construct: also called recombinant PVRIG protein; soluble PVRIG
# T1 sequence: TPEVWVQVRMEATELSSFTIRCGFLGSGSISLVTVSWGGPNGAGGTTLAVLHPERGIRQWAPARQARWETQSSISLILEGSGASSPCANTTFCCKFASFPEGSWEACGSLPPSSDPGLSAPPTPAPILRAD
# T2: PVRIG-hFc protein (human, UniProt Q6DKI7 41-171, limits assumed)
# T2 construct: also called human PVRIG protein; not shown: human Fc (hFc)
# T2 sequence (looked up): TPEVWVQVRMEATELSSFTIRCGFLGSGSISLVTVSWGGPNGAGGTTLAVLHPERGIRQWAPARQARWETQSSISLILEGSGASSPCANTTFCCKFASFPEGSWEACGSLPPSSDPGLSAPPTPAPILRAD
# T3: cynomolgus monkey PVRIG on 293T-cynoPVRIG cells (cynomolgus monkey, UniProt A0A2K5WVV8 41-322)
# T3 construct: whole, on cells; also called full-length monkey PVRIG
# T3 sequence: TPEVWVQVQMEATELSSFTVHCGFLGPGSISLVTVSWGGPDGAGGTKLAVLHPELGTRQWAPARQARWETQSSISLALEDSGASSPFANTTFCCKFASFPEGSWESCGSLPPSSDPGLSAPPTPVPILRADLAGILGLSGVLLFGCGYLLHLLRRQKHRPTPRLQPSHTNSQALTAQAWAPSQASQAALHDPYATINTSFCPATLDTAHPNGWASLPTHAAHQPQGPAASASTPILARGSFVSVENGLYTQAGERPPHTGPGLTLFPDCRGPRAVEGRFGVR
# T4: human PVRIG on Jurkat-hPVRIG cells (human, UniProt Q6DKI7 41-326)
# T4 sequence (looked up): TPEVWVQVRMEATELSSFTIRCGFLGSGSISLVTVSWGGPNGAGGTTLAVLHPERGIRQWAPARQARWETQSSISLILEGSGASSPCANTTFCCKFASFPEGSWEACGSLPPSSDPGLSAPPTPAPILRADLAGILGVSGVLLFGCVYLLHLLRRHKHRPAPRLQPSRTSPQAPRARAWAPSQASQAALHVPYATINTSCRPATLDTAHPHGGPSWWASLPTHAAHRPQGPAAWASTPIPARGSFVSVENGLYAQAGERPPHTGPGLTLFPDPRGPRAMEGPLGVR
# T5: recombinant cynomolgus monkey (Cyno) PVRIG protein (cynomolgus monkey, UniProt A0A2K5WVV8 41-171)
# T5 construct: also called soluble cynomolgus monkey PVRIG
# T5 sequence: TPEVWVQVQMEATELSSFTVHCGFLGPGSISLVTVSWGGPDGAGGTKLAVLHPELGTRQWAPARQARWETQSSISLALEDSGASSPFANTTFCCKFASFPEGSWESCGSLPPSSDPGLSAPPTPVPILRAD
# T6: human PVRIG-His protein (human, UniProt Q6DKI7 41-171, limits assumed)
# T6 construct: not shown: His tag
# T6 sequence (looked up): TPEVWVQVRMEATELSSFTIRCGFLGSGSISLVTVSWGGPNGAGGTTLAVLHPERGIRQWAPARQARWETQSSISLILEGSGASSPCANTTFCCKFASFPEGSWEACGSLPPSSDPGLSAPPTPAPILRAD
# Assays:
# [1] = target: T1, recombinant human PVRIG protein (PVRIG …); assay: ELISA, PVRIG extracellular protein coated at 500 ng/ml
# Description: VH and VL were respectively constructed into a eukaryotic expression vector comprising hIgG1-kappa constant region. The obtained eukaryotic expression vector was transiently transfected into HEK-293 cells and cultured for 6 days. The culture supernatant was harvested and purified by Protein A to obtain target antibodies, which were named 21F10C10-hIgG1 and 43F7C9-hIgG1, respectively. The affinity of the antibodies to the recombinant PVRIG protein was determined by ELISA. The PVRIG extracellular full-length protein diluted to a concentration of 500 ng/ml was coated on the ELISA plate. The plate was washed 3 times with PBST buffer, and then 200 μl of PBS buffer containing 2% BSA was added, and the plate was blocked at 37° C. for 2 h. After the blocking was completed, the plate was washed 3 times with PBST buffer; 3-fold gradient dilutions of the test antibody (0-33.3 nM) were added, incubated at 37° C. for 2 h; then the plate was washed 3 times with PBST buffer. Horseradish peroxidase-labeled goat anti-human antibody was added, incubated at 37° C. for 1 h; then the plate was washed three times with PBST buffer. TMB single-component color developing solution was added for color development, reading the absorbance value after adding the stop solution.
# PVRIG-hFc protein [2] = target: T2, PVRIG-hFc protein; assay: blocking ELISA: antibody titrated against PVRIG-hFc binding to coated CD112-His
# Description: The ELISA method was used to determine the ability of humanized PVRIG antibody to block the binding of human CD112 protein to human PVRIG protein. The CD112-His protein was diluted to a concentration of 1 μg/ml, and coated on the ELISA plate. A 3-fold gradient dilution of the antibody (0-133 nM) was mixed with the PVRIG-hFc protein and added to the coated ELISA plate to incubate at 37° C. for 1 hour. After washing the plate, the HRP-labeled goat anti-human Fc antibody was added to incubate at 37° C. for 1 hour. After washing the plate, the color developing solution was added, then adding the stop solution after 5 minutes and reading the results. The blocking results of the antibodies obtained are shown in FIG. 6 and Table 12 after GraphPad fitting. […] At the same time, Hab1B10E8.6, Hab21F10C10.12 and Hab43F7C9.12 have better ELISA blocking ability than the control molecule SRF813.
# [3] = target: T3, cynomolgus monkey PVRIG on …; assay: flow cytometry on 293T-cynoPVRIG cells
# Description: The cells were seeded in a 96-well plate at a density of 2×10⁶, 100 μl/well, then washed three times with FACS buffer and the supernatant was discarded. Antibodies diluted with PBS buffer (0-2.5 nM) in a gradient were added to incubate at 4° C. for 1 h. The cells were washed three times with FACS buffer, and then labeled with Alexa Fluor 488-labeled goat anti-human IgG antibody at 4° C. in the dark for 45 min. The cells were washed three times with FACS buffer, and the fluorescence intensity of the cells was read by flow cytometry.
# [4] = target: T4, human PVRIG on Jurkat-hPVRIG cells; assay: cell-based or functional assay
# [5] = target: T5, recombinant cynomolgus monkey (Cyno) …; assay: ELISA, Cyno-PVRIG protein coated at 500 ng/ml
# Description: The affinity of humanized antibody to recombinant cynomolgus monkey (Cyno) PVRIG protein was determined by ELISA. The Cyno-PVRIG protein was diluted to 500 ng/ml, and coated on the ELISA plate. After blocking, a 3-fold gradient dilution of the antibody (0-33.3 nM) was added. After incubation with goat anti-human secondary antibody for 1 hour, the plate was washed and the color was developed to read.
# [6] = target: T4, human PVRIG on Jurkat-hPVRIG cells; assay: flow cytometry on Jurkat-hPVRIG cells
# Description: The cells were inoculated at a density of 2×10⁶/ml in 96-well plate, 100 μl/well. 4-fold gradient dilutions of antibodies (0-66.7 nM) were added to incubate at 4° C. for 1 h. Goat anti-human secondary antibody was added, and the cells were labeled in the dark at 4° C. for 45 min. After the cells were collected and washed, the fluorescence intensity of the cells was read by flow cytometry. […] At the same time, the affinity of Hab43F7C9.12 in recognizing cell surface PVRIG is better than that of the control molecule SRF813.
# [7] = target: T1, recombinant human PVRIG protein (PVRIG …); assay: ELISA, human PVRIG protein coated at 500 ng/ml
# Description: The affinity of humanized antibody to recombinant human PVRIG protein was determined by ELISA. The PVRIG protein was diluted to 500 ng/ml, and coated on the ELISA plate. After blocking, 3-fold gradient dilution of antibody (0-66.7 nM) was added, then performed color development and reading after incubation with goat anti-human secondary antibody.
# human PVRIG-His protein = target: T6, human PVRIG-His protein; assay: BLI (Fortebio), PVRIG-His on HIS1K biosensor, antibody as analyte
# Description: The HIS1K biosensor was used, and human PVRIG-His protein was immobilized on the biosensor to a binding response threshold of 0.3 nm. After a 120 s baseline step, the sensor was immersed in an anti-PVRIG antibody diluted with 0.02% PBST buffer, with a starting antibody concentration of 25 nM, performing gradient dilution of 2-fold concentration with 7 gradients set. The binding and dissociation time of the immobilized substance and the analyte were 120 s and 300 s, respectively. The affinity data of antigen and antibody was calculated by regression analysis software based on the binding curve.
# PVRIG-hFc protein [8] = target: T2, PVRIG-hFc protein; assay: blocking flow cytometry: antibody titrated against PVRIG-hFc (1 ug/ml) binding to 293T-CD112 cells
# Description: The cells were washed three times with FACS buffer, and then labeled with Alexa Fluor 488-labeled goat anti-human IgG antibody at 4° C. in the dark for 50 min. Then the cells were washed three times with FACS buffer, and the fluorescence intensity of the cells was read by flow cytometry.
Binder,EC50 [1] [nM],EC50 (PVRIG-hFc protein [2]) [nM],EC50 [3] [nM],EC50 (nM) of reporter genes [4] [nM],EC50 [5] [nM],EC50 [6] [nM],EC50 [7] [nM],Kd (human PVRIG-His protein) [nM],koff (human PVRIG-His protein) [s⁻¹],kon (human PVRIG-His protein) [M⁻¹ s⁻¹],EC50 (PVRIG-hFc protein [8]) [nM]
"21F10C10-hIgG1 (antibody, V domains shown, also called 21F10C10 chimeric antibody) VH: QVQLQQSGAELVRPGTSVKVSCKASGYAFINNFIEWVKQRPGQGLEWIGVINPGSGDANYNEKFKGKATLTADKSSTTAYIQLSSLTSDDSAVYFCASHWLAYWGQGTLVTVSA VL: DIVMTQSPSSLSVSAGEKVTMSCKSSQSLLSSGNQKNYLAWYQQKPGQPPKLLIYGASTRESGVPDRFTGSGSGTDFTLTISSVQAEDLAVYYCQNGHFYPYTFGGGTKLEIK",0.122,,,,,,,,,,
"43F7C9-hIgG1 (antibody, V domains shown, also called 43H7C9-hIgG1; 43H7C9) VH: DVQLQESGPGLVKPSQSLSLTCTVTGYSITSDYAWNWIRQFPGNRLEWMGYIRYNGNTNYNPSLKSRISITRDTSKNQFFLQLNSVTTEDTATYYCAIIYYDYDGFVYWGQGTLVTVSA VL: DILLTQSPATLSVTPGETVSLSCRASQNVYENLHWYQQKSHRSPRLLIKFASDSISGIPSRFTGSGSGTDYTLSINSVKPEDEGIYYCLQLYSTPYTFGGGTELEIK",0.29,,,,,,,,,,
"Hab1B10E8.6 (antibody, V domains shown, Humanized antibody; also called Hab1B10E8-VH.1b + Hab1B10E8-VL.1b) VH: QVQLVQSGAEVKKPGASVKVSCKASGYSFPSYWMHWVRQAPGQGLEWIGEINPSNGLTNYNEQFRNRVTMTVDTSTSTVYMELSSLRSEDTAVYYCARHHGSTYYALDSWGQGTLVTVSS VL: DIVMTQSPDSLAVSLGERATINCKSSQSLLNSINQKNFLAWYQQKPGQPPKLLVYFASTRESGVPDRFSGSGSGTDFTLTISSLQAEDVAVYFCQQHYSTPPTFGGGTKLEIK",,0.285,0.124,0.184,0.141,0.0501,0.0869,< 0.001,< 1e-07,782000,2.56
"SRF813-IgG1 (antibody, V domains shown) VH: QVQLVQSGAEVKKPGSSVKVSCKASGGTFSSAAISWVRQAPGQGLEWMGNIIPIVGIANYAQKFQGRVTITADESTSTAYMELSSLRSEDTAVYYCARDTGRGYTRHFWFDPWGQGTLVTVSS VL: DIQMTQSPSSLSASVGDRVTITCRASQSISSYLNWYQQKPGKAPKLLIYAASSLQSGVPSRFSGSGSGTDFTLTISSLQPEDFATYYCQQSDILYTFGGGTKVEIK",,0.431,0.15,0.963,,0.0497,,,,,
"Hab43F7C9.12 (antibody, V domains shown, Humanized antibody; also called Hab43F7C9-VH.1d + Hab43F7C9-VL.1c; 43H7C9.12) VH: QVQLQESGPGLVKPSETLSLTCTVSGYSISSDYAWNWIRQPPGKGLEWIGYIRYNGNTNYNPSLKSRVTISVDTSKNQFSLKLSSVTAADTAVYYCAIIYYDYDGFVYWGQGTTVTVSS VL: DIQMTQSPSSLSASVGDRVTITCRASQNVYENLHWYQQKPGKAPKLLIKFASDSISGVPSRFSGSGSGTDFTLTISSLQPEDFATYYCLQLYSTPYTFGGGTKLEIK",,0.258,0.108,0.0651,0.0797,0.0178,0.145,< 0.001,< 1e-07,963000,1.46
"Hab21F10C10.12 (antibody, V domains shown, Humanized antibody; also called Hab21F10C10-VH.1d + Hab21F10C10-VL.1c) VH: QVQLVQSGAEVKKPGASVKVSCKASGYTFINNFIEWVRQAPGQGLEWMGVINPGSGDANYAQKFQGRVTMTRDTSISTAYMELSRLRSDDTAVYYCASHWLAYWGQGTTVTVSS VL: EIVMTQSPPTLSLSPGERVTLSCRSSQSLLSSGNQKNYLSWYQQKPGQAPRLLIYGASTRETGIPARFSGSGSGTDFTLTISSLQPEDFAVYYCQNGHFYPYTFGGGTKLEIK",,0.226,0.267,0.164,0.364,0.0553,0.165,< 0.001,< 1e-07,837000,2.52
